B1: Example 986 (peptide)
chain: YXQGTFTSDXSQXLDXKAQXAFIEYLIAGGPSSGEPPPSGTEEE
modifications: synthetic construct; SITE 2: note = 2-Aminoisobutyric Acid; SITE 10: note = 3-(4-Pyridyl)-L-alanine; SITE 13: note = alpha-methyl-leucine; SITE 16: note = L-ornithine; SITE 17: note = Lysine is chemically modified through conjugation of the epsilon-amino group of the Lysine side chain with (gamma-Gl)
B2: Example 987 (peptide)
chain: YXQGTFTSDXSXXLDKKAQXAFIEXLIEXGPSSGEPPPSGS
modifications: Aib, 4Pal, Orn, αMeL, Me4Pal, acylated K, C-terminal amide; synthetic construct; SITE 2: note = 2-Aminoisobutyric Acid; SITE 10: note = 3-(4-Pyridyl)-L-alanine; SITE 12: note = L-ornithine; SITE 13: note = alpha-methyl-leucine; SITE 17: note = Lysine is chemically modified through conjugation of the epsilon-amino group of the Lysine side chain with (2-[2-(2-
B3: Example 988 (peptide)
chain: YXQGTFTSDXSXXLDKKAQXAFIEXLIEXGPSSGEPPPSGSE
modifications: non-natural residues; Lys acylated AEEA-(γGlu)2-C18 diacid; C-terminal amide; synthetic construct; SITE 2: note = 2-Aminoisobutyric Acid; SITE 10: note = 3-(4-Pyridyl)-L-alanine; SITE 12: note = L-ornithine; SITE 13: note = alpha-methyl-leucine; SITE 17: note = Lysine is chemically modified through conjugation of the epsilon-amino group of the Lysine side chain with (2-[2-(2-
B4: Example 989 (peptide)
chain: YXQGTFTSDXSXXLDKKAQXAFIEXLIEXGPSSGEPPPSGS
modifications: Lys acylated (γ-Glu)2-C18 diacid; non-natural residues; C-terminal amide; synthetic construct; SITE 2: note = 2-Aminoisobutyric Acid; SITE 10: note = 3-(4-Pyridyl)-L-alanine; SITE 12: note = L-ornithine; SITE 13: note = alpha-methyl-leucine; SITE 17: note = Lysine is chemically modified through conjugation of the epsilon-amino group of the Lysine side chain with (gamma-Gl)
B5: Example 990 (peptide)
chain: YXQGTFTSDXSXXLDKKAQXAFIEXLIEXGPSSGEPPPSGSE
modifications: Aib, 4Pal, Me4Pal, Orn, alpha-methyl-Leu, lipidated Lys, amide; synthetic construct; SITE 2: note = 2-Aminoisobutyric Acid; SITE 10: note = 3-(4-Pyridyl)-L-alanine; SITE 12: note = L-ornithine; SITE 13: note = alpha-methyl-leucine; SITE 17: note = Lysine is chemically modified through conjugation of the epsilon-amino group of the Lysine side chain with (gamma-Gl)
B6: Example 991 (peptide)
chain: YXQGTFTSDXSXXLDXKAQXAFIEXLIEXGPSSGEPPPSGS
modifications: Aib, 4Pal, Orn, Me4Pal, lipidated Lys, C-terminal amide; synthetic construct; SITE 2: note = 2-Aminoisobutyric Acid; SITE 10: note = 3-(4-Pyridyl)-L-alanine; SITE 12: note = L-ornithine; SITE 13: note = alpha-methyl-leucine; SITE 16: note = L-ornithine; SITE 17: note = Lysine is chemically modified through conjugation of the epsilon-amino group of the Lys
B7: Example 992 (peptide)
chain: YXQGTFTSDXSXXLDXKAQXQFIEXLIAGGPSSGAPPPSGSEE
modifications: non-natural residues (Aib, 4Pal, Orn, Me4Pal, αMeY); lipidated Lys; C-amide; synthetic construct; SITE 2: note = 2-Aminoisobutyric Acid; SITE 10: note = 3-(4-Pyridyl)-L-alanine; SITE 12: note = L-ornithine; SITE 13: note = alpha-methyl-leucine; SITE 16: note = L-ornithine; SITE 17: note = Lysine is chemically modified through conjugation of the epsilon-amino group of the Lys
B8: Example 993 (peptide)
chain: YXQGTFTSDXSXXLDXKAQXEFIEXLIAGGPSSGAPPPSGSEE
modifications: non-natural residues; lipidated Lys (γGlu)2-C18 diacid; C-term amide; synthetic construct; SITE 2: note = 2-Aminoisobutyric Acid; SITE 10: note = 3-(4-Pyridyl)-L-alanine; SITE 12: note = L-ornithine; SITE 13: note = alpha-methyl-leucine; SITE 16: note = L-ornithine; SITE 17: note = Lysine is chemically modified through conjugation of the epsilon-amino group of the Lys
B9: Example 994 (peptide)
chain: YXQGTFTSDXSXXLDXKAQXXFIEXLIAGGPSSGAPPPSGSEE
modifications: Lys acylated with (γGlu)2-C18 diacid; non-natural residues; C-amide; synthetic construct; SITE 2: note = 2-Aminoisobutyric Acid; SITE 10: note = 3-(4-Pyridyl)-L-alanine; SITE 12: note = L-ornithine; SITE 13: note = alpha-methyl-leucine; SITE 16: note = L-ornithine; SITE 17: note = Lysine is chemically modified through conjugation of the epsilon-amino group of the Lys
B10: Example 995 (peptide)
chain: YXQGTFTSDXSXXLDXKAQXQFIEXLLAGGPSSGAPPPSGSEE
modifications: non-natural residues, (γGlu)2-diacid acylated Lys, C-terminal amide; synthetic construct; SITE 2: note = 2-Aminoisobutyric Acid; SITE 10: note = 3-(4-Pyridyl)-L-alanine; SITE 12: note = L-ornithine; SITE 13: note = alpha-methyl-leucine; SITE 16: note = L-ornithine; SITE 17: note = Lysine is chemically modified through conjugation of the epsilon-amino group of the Lys
B11: Example 996 (peptide)
chain: YXQGTFTSDXSXXLDXKAQXEFIEXLLAGGPSSGAPPPSGSEE
modifications: acylated lysine (γ-Glu)2 C18 diacid; non-natural residues; C-terminal amide; synthetic construct; SITE 2: note = 2-Aminoisobutyric Acid; SITE 10: note = 3-(4-Pyridyl)-L-alanine; SITE 12: note = L-ornithine; SITE 13: note = alpha-methyl-leucine; SITE 16: note = L-ornithine; SITE 17: note = Lysine is chemically modified through conjugation of the epsilon-amino group of the Lys
B12: Example 997 (peptide)
chain: YXQGTFTSDXSXXLDXKAQXXFIEXLLAGGPSSGAPPPSGSEE
modifications: non-natural residues; lipidated Lys (γGlu)2-C18 diacid; C-term amide; synthetic construct; SITE 2: note = 2-Aminoisobutyric Acid; SITE 10: note = 3-(4-Pyridyl)-L-alanine; SITE 12: note = L-ornithine; SITE 13: note = alpha-methyl-leucine; SITE 16: note = L-ornithine; SITE 17: note = Lysine is chemically modified through conjugation of the epsilon-amino group of the Lys
B13: Example 998 (peptide)
chain: YXQGTFTSDXSQXLDXKAQXQFIEXLLAGGPSSGAPPPSGSEE
modifications: non-natural residues, acylated Lys, C-terminal amide; synthetic construct; SITE 2: note = 2-Aminoisobutyric Acid; SITE 10: note = 3-(4-Pyridyl)-L-alanine; SITE 13: note = alpha-methyl-leucine; SITE 16: note = L-ornithine; SITE 17: note = Lysine is chemically modified through conjugation of the epsilon-amino group of the Lysine side chain with (gamma-Gl)
B14: Example 999 (peptide)
chain: YXQGTFTSDXSQXLDXKAQXEFIEXLLAGGPSSGAPPPSGSEE
modifications: Aib, 4Pal, αMeL, Orn, Me4Pal, αMeY; γGlu2-C18 diacid Lys; amide; synthetic construct; SITE 2: note = 2-Aminoisobutyric Acid; SITE 10: note = 3-(4-Pyridyl)-L-alanine; SITE 13: note = alpha-methyl-leucine; SITE 16: note = L-ornithine; SITE 17: note = Lysine is chemically modified through conjugation of the epsilon-amino group of the Lysine side chain with (gamma-Gl)
B15: Example 1000 (peptide)
chain: YXQGTFTSDXSXXLDXKAQXQFIEYLIAGGPSSGAPPPSGSEE
modifications: Lys acylated with (γGlu)2-C18 diacid; non-natural residues; C-amide; synthetic construct; SITE 2: note = 2-Aminoisobutyric Acid; SITE 10: note = 3-(4-Pyridyl)-L-alanine; SITE 12: note = L-ornithine; SITE 13: note = alpha-methyl-leucine; SITE 16: note = L-ornithine; SITE 17: note = Lysine is chemically modified through conjugation of the epsilon-amino group of the Lys
B16: Example 96 (peptide)
chain: YXQGTFTSDFSXXLDKKAQXQFIEYLLAGGPSSGAPPPEGS
modifications: synthetic construct; SITE 2: note = 2-Aminoisobutyric Acid; SITE 12: note = L-ornithine; SITE 13: note = alpha-methyl-leucine; SITE 17: note = Lysine is chemically modified through conjugation of the epsilon-amino group of the Lysine side chain with (2-[2-(2-Amino-ethoxy)-ethoxy]-acetyl)-(gamma-Glu)

Legend:
Test in all cases: cell-based or functional assay
hGLP-1R = hGLP-1R (Homo sapiens, UniProt P43220)
Chain of hGLP-1R (P43220 24-463): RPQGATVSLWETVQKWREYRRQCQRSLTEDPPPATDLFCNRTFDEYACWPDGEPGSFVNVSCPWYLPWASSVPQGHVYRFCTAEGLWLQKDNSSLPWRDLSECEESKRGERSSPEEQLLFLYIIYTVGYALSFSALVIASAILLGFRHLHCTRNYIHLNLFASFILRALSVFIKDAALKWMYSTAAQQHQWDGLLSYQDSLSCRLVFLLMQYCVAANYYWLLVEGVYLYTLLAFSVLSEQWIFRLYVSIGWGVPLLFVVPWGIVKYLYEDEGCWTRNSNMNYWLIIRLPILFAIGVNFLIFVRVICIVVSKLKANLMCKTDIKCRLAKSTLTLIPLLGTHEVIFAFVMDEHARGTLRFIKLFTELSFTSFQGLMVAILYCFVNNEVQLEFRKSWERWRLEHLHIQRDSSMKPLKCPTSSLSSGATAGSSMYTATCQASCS

[1] = target: T1, human GIP receptor (human) (UniProt P48546)
T1 sequence (looked up): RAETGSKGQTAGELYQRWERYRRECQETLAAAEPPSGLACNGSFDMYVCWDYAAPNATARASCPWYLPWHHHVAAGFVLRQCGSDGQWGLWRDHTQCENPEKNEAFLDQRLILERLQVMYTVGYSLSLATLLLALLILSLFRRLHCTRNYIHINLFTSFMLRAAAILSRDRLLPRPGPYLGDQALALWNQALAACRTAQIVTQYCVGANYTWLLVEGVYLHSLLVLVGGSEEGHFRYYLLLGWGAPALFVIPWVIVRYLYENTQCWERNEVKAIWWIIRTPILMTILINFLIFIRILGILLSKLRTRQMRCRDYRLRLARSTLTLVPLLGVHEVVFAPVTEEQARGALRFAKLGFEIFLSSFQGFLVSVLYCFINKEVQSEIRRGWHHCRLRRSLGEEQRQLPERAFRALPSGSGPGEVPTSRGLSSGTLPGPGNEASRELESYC

[2] = target: human glucagon receptor (human) (UniProt P47871)
Chain of human glucagon receptor (human) (P47871 26-477): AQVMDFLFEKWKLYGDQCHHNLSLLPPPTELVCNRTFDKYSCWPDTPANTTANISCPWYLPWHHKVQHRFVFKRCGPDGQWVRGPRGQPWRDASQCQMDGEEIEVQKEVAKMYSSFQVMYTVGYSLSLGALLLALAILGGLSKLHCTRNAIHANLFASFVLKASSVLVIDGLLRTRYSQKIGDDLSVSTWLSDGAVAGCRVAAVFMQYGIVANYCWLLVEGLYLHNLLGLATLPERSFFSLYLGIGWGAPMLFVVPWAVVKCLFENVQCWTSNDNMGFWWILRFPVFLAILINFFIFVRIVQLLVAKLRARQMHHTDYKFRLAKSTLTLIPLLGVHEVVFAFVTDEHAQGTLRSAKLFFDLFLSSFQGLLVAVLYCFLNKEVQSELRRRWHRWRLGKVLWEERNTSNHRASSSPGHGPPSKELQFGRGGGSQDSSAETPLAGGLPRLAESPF

Row | Binder | Relative cAMP EC50 (hGLP-1R) | cAMP Rel EC50, nM (1% HSA) (hGLP-1R) | Relative cAMP EC50 [1] | cAMP Rel EC50, nM (1% HSA) [1] | Relative cAMP EC50 [2] | cAMP Rel EC50, nM (1% HSA) [2] | cAMP Rel EC50, nM (in the presence of 1% HSA) (hGLP-1R) | cAMP Rel EC50, nM (in the presence of 1% HSA) [1] | cAMP Rel EC50, nM (in the presence of 1% HSA) [2]
1 | B1 | 3.06 nM | 380 nM | 0.299 nM | 31.3 nM | 4.94 nM | 702 nM | – | – | –
2 | B2 | 6.33 nM | 515 nM | 0.194 nM | 11.7 nM | 3.62 nM | 267 nM | – | – | –
3 | B3 | 9.5 nM | 743 nM | 0.198 nM | 11.8 nM | 2.52 nM | 320 nM | – | – | –
4 | B4 | 3.92 nM | 402 nM | 0.103 nM | 8 nM | 2.27 nM | 247 nM | – | – | –
5 | B5 | 5.78 nM | 557 nM | 0.115 nM | 9.87 nM | 2.47 nM | 276 nM | – | – | –
6 | B6 | 3.91 nM | 315 nM | 0.119 nM | 14.8 nM | 3.03 nM | 405 nM | – | – | –
7 | B7 | – | 643 nM | – | 12.5 nM | – | 863 nM | – | – | –
8 | B8 | – | 1210 nM | – | 14.5 nM | – | 1860 nM | – | – | –
9 | B9 | – | 395 nM | – | 30.8 nM | – | 1050 nM | – | – | –
10 | B10 | – | 1660 nM | – | 6.12 nM | – | 295 nM | – | – | –
11 | B11 | – | 4810 nM | – | 11.2 nM | – | 1160 nM | – | – | –
12 | B12 | – | 1880 nM | – | 27.8 nM | – | 527 nM | – | – | –
13 | B13 | – | 1470 nM | – | 6.78 nM | – | 794 nM | – | – | –
14 | B14 | – | 3020 nM | – | 10.4 nM | – | 2130 nM | – | – | –
15 | B15 | – | 279 nM | – | 15.5 nM | – | 501 nM | – | – | –
16 | B16 | 3.92 nM | – | 0.456 nM | – | 14.1 nM | – | 836 nM | 49.3 nM | 2150 nM
